Results: US20250011379A1
Each block holds one binder with its values, some of them ahead of it.

Biological target: human C4b (human), P0C0L5
Assay: cell-based or functional assay

Chain of human C4b (human), P0C0L5 (P0C0L5 20-1744): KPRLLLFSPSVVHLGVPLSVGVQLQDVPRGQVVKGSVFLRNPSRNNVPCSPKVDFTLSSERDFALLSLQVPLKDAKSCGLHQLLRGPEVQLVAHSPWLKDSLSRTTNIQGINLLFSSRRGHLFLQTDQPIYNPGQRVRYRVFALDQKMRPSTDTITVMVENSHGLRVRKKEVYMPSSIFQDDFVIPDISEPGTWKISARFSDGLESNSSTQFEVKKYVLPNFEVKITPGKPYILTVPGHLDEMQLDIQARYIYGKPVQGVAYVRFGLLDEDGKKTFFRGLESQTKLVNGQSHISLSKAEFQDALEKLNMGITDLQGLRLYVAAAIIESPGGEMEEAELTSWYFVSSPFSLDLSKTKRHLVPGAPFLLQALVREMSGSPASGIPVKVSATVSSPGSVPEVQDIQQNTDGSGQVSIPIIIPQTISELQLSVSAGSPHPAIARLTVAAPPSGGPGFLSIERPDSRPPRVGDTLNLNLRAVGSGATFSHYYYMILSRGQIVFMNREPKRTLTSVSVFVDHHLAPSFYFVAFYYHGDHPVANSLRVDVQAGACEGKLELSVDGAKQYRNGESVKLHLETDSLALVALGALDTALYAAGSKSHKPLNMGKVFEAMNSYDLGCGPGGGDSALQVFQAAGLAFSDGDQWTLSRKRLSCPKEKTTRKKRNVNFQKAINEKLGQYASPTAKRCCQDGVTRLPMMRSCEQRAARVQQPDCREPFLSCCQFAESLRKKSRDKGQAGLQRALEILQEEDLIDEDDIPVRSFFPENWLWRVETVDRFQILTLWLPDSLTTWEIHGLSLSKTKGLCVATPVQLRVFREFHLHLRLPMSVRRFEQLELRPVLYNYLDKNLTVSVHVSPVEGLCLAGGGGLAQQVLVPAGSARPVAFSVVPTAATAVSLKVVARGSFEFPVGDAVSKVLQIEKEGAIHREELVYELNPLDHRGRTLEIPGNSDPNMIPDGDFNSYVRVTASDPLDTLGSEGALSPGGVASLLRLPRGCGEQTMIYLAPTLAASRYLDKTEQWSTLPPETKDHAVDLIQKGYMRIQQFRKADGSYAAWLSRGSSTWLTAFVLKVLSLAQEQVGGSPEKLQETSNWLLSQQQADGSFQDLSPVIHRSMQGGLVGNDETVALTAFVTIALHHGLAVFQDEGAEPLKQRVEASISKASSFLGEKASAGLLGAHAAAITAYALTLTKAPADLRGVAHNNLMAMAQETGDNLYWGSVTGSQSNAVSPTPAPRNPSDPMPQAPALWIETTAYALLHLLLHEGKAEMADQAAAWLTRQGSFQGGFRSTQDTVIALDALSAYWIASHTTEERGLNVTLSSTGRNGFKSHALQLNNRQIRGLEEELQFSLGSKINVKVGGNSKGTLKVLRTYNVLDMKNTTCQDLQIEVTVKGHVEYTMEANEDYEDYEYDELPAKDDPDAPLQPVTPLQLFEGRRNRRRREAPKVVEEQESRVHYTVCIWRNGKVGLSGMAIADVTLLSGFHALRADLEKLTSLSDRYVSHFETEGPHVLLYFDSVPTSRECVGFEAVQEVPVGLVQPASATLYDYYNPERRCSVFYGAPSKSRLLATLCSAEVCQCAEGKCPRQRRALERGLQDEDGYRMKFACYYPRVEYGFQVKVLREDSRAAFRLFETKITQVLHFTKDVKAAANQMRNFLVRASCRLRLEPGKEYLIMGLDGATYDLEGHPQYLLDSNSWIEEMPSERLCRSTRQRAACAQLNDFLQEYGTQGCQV

C4c EC50: 412 nM
B1: Const. No. 94: hCFI-PD (wild type plasma-derived human CFI), P05156 19-583 (enzyme)
chain: KVTYTSQEDLVEKKCLAKKYTHLSCDKVFCQPWQRCIEGTCVCKLPYQCPKNGTAVCATNRRSFPTYCQQKSLECLHPGTKFLNNGTCTAEGKFSVSLKHGNTDSEGIVEVKLVDQDKTMFICKSSWSMREANVACLDLGFQQGADTQRRFKLSDLSINSTECLHVHCRGLETSLAECTFTKRRTMGYQDFADVVCYTQKADSPMDDFFQCVNGKYISQMKACDGINDCGDQSDELCCKACQGKGFHCKSGVCIPSQYQCNGEVDCITGEDEVGCAGFASVTQEETEILTADMDAERRRIKSLLPKLSCGVKNRMHIRRKRIVGGKRAQLGDLPWQVAIKDASGITCGGIYIGGCWILTAAHCLRASKTHRYQIWTTVVDWIHPDLKRIVIEYVDRIIFHENYNAGTYQNDIALIEMKKDGNKKDCELPRSIPACVPWSPYLFQPNDTCIVSGWGREKDNERVFSLQWGEVKLISNCSKFYGNRFYEKEMECAGTYDGSIDACKGDSGGPLVCMDANNVTYVWGVVSWGENCGKPEFPGVYTKVANYFDWISYHVGRPFISQYNV

C4c EC50: 340 nM
B2: Const. No. 96: hCFI (wt hCFI, no signal sequence, no HSA), P05156 19-583 (enzyme)
chain: B1 chain
